The results in this text go back to paper PMC8513821 (Nature, 2021).

This data set concerns the molecule itself. Briefly: single-molecule photobleaching step counting.

B1: HCN1SM (human HCN1 with amino acids 636-865 deleted, N-terminal Twin-strep tag and eGFP) (complex, UniProt O60741 1-890, looked up)
chain: MEGGGKPNSSSNSRDDGNSVFPAKASATGAGPAAAEKRLGTPPGGGGAGAKEHGNSVCFKVDGGGGGGGGGGGGEEPAGGFEDAEGPRRQYGFMQRQFTSMLQPGVNKFSLRMFGSQKAVEKEQERVKTAGFWIIHPYSDFRFYWDLIMLIMMVGNLVIIPVGITFFTEQTTTPWIIFNVASDTVFLLDLIMNFRTGTVNEDSSEIILDPKVIKMNYLKSWFVVDFISSIPVDYIFLIVEKGMDSEVYKTARALRIVRFTKILSLLRLLRLSRLIRYIHQWEEIFHMTYDLASAVVRIFNLIGMMLLLCHWDGCLQFLVPLLQDFPPDCWVSLNEMVNDSWGKQYSYALFKAMSHMLCIGYGAQAPVSMSDLWITMLSMIVGATCYAMFVGHATALIQSLDSSRRQYQEKYKQVEQYMSFHKLPADMRQKIHDYYEHRYQGKIFDEENILNELNDPLREEIVNFNCRKLVATMPLFANADPNFVTAMLSKLRFEVFQPGDYIIREGAVGKKMYFIQHGVAGVITKSSKEMKLTDGSYFGEICLLTKGRRTASVRADTYCRLYSLSVDNFNEVLEEYPMMRRAFETVAIDRLDRIGKKNSILLQKFQKDLNTGVFNNQENEILKQIVKHDREMVQAALPRESSSVLNTDPDAEKPRFASNL
A word on the stoichiometry N: it is a count of units in the complex or per binding partner. For B1, the “stoichiometry N” value came out at 4.
